Source: the RNAGym collection of RNA variant scans (doi:10.1101/gr.219683.116)

B1: mRNA-splicing (parent)
chain: AGUUGCUGCUGGGAGCUCCAGCACAGUGAAAUGGACAGAAGGGCAGAGCAA

Variants of: B1
Test: exon inclusion enrichment index; higher = more inclusion; WT1 exon 5 minigene, HEK293

In order of falling “exon inclusion enrichment index” value:
1. AGUUGCUGCUGGGAGCUCCAGCAUCGUGAAAUGGACAGAAGGGCAGAGCAA [C24U A25C]  1.23
2. AGUUGCUGCUGGGAGCUCCAGCACCGUGAAAUGGACAGAAGGGCAGAGCAA [A25C]  1.1
3. AGUUGCUGCUGGGAGCUCCAGCACACGGAAAUGGACAGAAGGGCAGAGCAA [G26C U27G]  0.615
4. AGUUGCUGCUGGGAGCUCCAGCACGGUGAAAUGGACAGAAGGGCAGAGCAA [A25G]  0.595
5. AGUUGCUGCUGGGAGCUCCAGCACAUCGAAAUGGACAGAAGGGCAGAGCAA [G26U U27C]  0.588
6. AGUUGCUGCUGGGAGCUCCAGCACACCGAAAUGGACAGAAGGGCAGAGCAA [G26C U27C]  0.584
7. AGUUGCUGCUGGGAGCUCCAGCACGAUGAAAUGGACAGAAGGGCAGAGCAA [A25G G26A]  0.573
8. AGUUGCUGCUGGGAGCUCCAGCAUGGUGAAAUGGACAGAAGGGCAGAGCAA [C24U A25G]  0.487
9. AGUUGCUGCUGGGAGCUCCAGCACCAUGAAAUGGACAGAAGGGCAGAGCAA [A25C G26A]  0.448
10. AGUUGCUGCUGGGAGCUCCAGCACCCUGAAAUGGACAGAAGGGCAGAGCAA [A25C G26C]  0.435
11. AGUUGCUGCUGGGAGCUCCAGCACAGUCGAAUGGACAGAAGGGCAGAGCAA [G28C A29G]  0.405
12. AGUUGCUGCUGGGAGCUCCAGCACAUGGAAAUGGACAGAAGGGCAGAGCAA [G26U U27G]  0.394
13. AGUUGCUGCUGGGAGCUCCAGCACCUUGAAAUGGACAGAAGGGCAGAGCAA [A25C G26U]  0.368
14. AGUUGCUGCUGGGAGCUCCAGCACAGCGAAAUGGACAGAAGGGCAGAGCAA [U27C]  0.36
15. AGUUGCUGCUGGGAGCUCCAGCACAGGAAAAUGGACAGAAGGGCAGAGCAA [U27G G28A]  0.354
16. AGUUGCUGCUGGGAGCUCCAGCACGUUGAAAUGGACAGAAGGGCAGAGCAA [A25G G26U]  0.326
17. AGUUGCUGCUGGGAGCUCCAGCACAAGGAAAUGGACAGAAGGGCAGAGCAA [G26A U27G]  0.311
18. AGUUGCUGCUGGGAGCUCCAGCACGCUGAAAUGGACAGAAGGGCAGAGCAA [A25G G26C]  0.272
19. AGUUGCUGCUGGGAGCUCCAGCACUGUGAAAUGGACAGAAGGGCAGAGCAA [A25U]  0.241
20. AGUUGCUGCUGGGAGCUCCAGCACUCUGAAAUGGACAGAAGGGCAGAGCAA [A25U G26C]  0.235
21. AGUUGCUGCUGGGAGCUCCAGCAUUGUGAAAUGGACAGAAGGGCAGAGCAA [C24U A25U]  0.208
22. AGUUGCUGCUGGGAGCUCCAGCACAGAGAAAUGGACAGAAGGGCAGAGCAA [U27A]  0.201
23. AGUUGCUGCUGGGAGCUCCAGCACAGACAAAUGGACAGAAGGGCAGAGCAA [U27A G28C]  0.192
24. AGUUGCUGCUGGGAGCUCCAGCACAGAAAAAUGGACAGAAGGGCAGAGCAA [U27A G28A]  0.181
25. AGUUGCUGCUGGGAGCUCCAGCACACUGAAAUGGACAGAAGGGCAGAGCAA [G26C]  0.156
26. AGUUGCUGCUGGGAGCUCCAGCACAUUGAAAUGGACAGAAGGGCAGAGCAA [G26U]  0.137
27. AGUUGCUGCUGGGAGCUCCAGCACUAUGAAAUGGACAGAAGGGCAGAGCAA [A25U G26A]  0.136
28. AGUUGCUGCUGGGAGCUCCAGCACAGUCCAAUGGACAGAAGGGCAGAGCAA [G28C A29C]  0.118
29. AGUUGCUGCUGGGAGCUCCAGCACACAGAAAUGGACAGAAGGGCAGAGCAA [G26C U27A]  0.11
30. AGUUGCUGCUGGGAGCUCCAGCACAGCCAAAUGGACAGAAGGGCAGAGCAA [U27C G28C]  0.105
31. AGUUGCUGCUGGGAGCUCCAGCACAGUCAAAUGGACAGAAGGGCAGAGCAA [G28C]  0.104
32. AGUUGCUGCUGGGAGCUCCAGCACAAAGAAAUGGACAGAAGGGCAGAGCAA [G26A U27A]  0.101
33. AGUUGCUGCUGGGAGCUCCAGCACAGGCAAAUGGACAGAAGGGCAGAGCAA [U27G G28C]  0.101
34. AGUUGCUGCUGGGAGCUCCAGCACAAUGAAAUGGACAGAAGGGCAGAGCAA [G26A]  0.0943
35. AGUUGCUGCUGGGAGCUCCAGCACUUUGAAAUGGACAGAAGGGCAGAGCAA [A25U G26U]  0.0827
36. AGUUGCUGCUGGGAGCUCCAGCACAGUACAAUGGACAGAAGGGCAGAGCAA [G28A A29C]  0.0703
37. AGUUGCUGCUGGGAGCUCCAGCACAGCAAAAUGGACAGAAGGGCAGAGCAA [U27C G28A]  0.0654
38. AGUUGCUGCUGGGAGCUCCAGCACAGGGAAAUGGACAGAAGGGCAGAGCAA [U27G]  0.0622
39. AGUUGCUGCUGGGAGCUCCAGCAUAGUGAAAUGGACAGAAGGGCAGAGCAA [C24U]  0.0472
40. AGUUGCUGCUGGGAGCUCCAGCAGCGUGAAAUGGACAGAAGGGCAGAGCAA [C24G A25C]  0.0375
41. AGUUGCUGCUGGGAGCUCCAGCACAGUAGAAUGGACAGAAGGGCAGAGCAA [G28A A29G]  0.0365
42. AGUUGCUGCUGGGAGCUCCAGCAGAGUGAAAUGGACAGAAGGGCAGAGCAA [C24G]  0.0337
43. AGUUGCUGCUGGGAGCUCCAGCAGGGUGAAAUGGACAGAAGGGCAGAGCAA [C24G A25G]  0.0325
44. AGUUGCUGCUGGGAGCUCCAGCACAUAGAAAUGGACAGAAGGGCAGAGCAA [G26U U27A]  0.0316
45. AGUUGCUGCUGGGAGCUCCAGCACAGAUAAAUGGACAGAAGGGCAGAGCAA [U27A G28U]  0.0261
46. AGUUGCUGCUGGGAGCUCCAGCAGUGUGAAAUGGACAGAAGGGCAGAGCAA [C24G A25U]  0.0194
47. AGUUGCUGCUGGGAGCUCCAGCACAACGAAAUGGACAGAAGGGCAGAGCAA [G26A U27C]  0.0175
48. AGUUGCUGCUGGGAGCUCCAGCACAGUAAAAUGGACAGAAGGGCAGAGCAA [G28A]  0.0138
49. AGUUGCUGCUGGGAGCUCCAGCACAGUAUAAUGGACAGAAGGGCAGAGCAA [G28A A29U]  0.00899
50. AGUUGCUGCUGGGAGCUCCAGCACAGCUAAAUGGACAGAAGGGCAGAGCAA [U27C G28U]  0.00627
51. AGUUGCUGCUGGGAGCUCCAGCACAGGUAAAUGGACAGAAGGGCAGAGCAA [U27G G28U]  0.00139
